Target: mouse CD22 (mouse) (UniProt P35329)
Experiment: cell-based or functional assay

Chain of UniProt P35329 (P35329 22-868): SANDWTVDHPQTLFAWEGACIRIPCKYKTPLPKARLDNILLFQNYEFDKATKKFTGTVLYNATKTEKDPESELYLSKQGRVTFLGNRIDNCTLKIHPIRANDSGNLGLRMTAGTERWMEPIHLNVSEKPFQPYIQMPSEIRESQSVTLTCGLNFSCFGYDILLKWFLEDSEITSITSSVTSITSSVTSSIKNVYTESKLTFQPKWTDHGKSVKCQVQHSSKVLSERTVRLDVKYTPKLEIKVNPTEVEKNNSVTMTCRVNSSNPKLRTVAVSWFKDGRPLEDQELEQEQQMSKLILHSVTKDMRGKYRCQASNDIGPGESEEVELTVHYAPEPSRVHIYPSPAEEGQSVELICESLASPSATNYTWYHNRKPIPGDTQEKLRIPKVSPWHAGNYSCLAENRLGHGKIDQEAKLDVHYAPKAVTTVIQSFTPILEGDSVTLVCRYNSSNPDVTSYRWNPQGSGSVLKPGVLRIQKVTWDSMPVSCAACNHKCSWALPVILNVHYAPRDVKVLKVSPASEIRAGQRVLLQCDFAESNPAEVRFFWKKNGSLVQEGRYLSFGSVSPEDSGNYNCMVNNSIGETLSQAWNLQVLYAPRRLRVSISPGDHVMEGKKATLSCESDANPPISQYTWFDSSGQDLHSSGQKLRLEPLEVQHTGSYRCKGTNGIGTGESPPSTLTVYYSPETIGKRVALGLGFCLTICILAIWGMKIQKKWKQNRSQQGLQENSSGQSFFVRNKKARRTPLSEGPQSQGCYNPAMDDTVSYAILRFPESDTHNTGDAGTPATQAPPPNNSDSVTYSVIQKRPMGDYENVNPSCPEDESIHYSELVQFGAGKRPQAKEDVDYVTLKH

Work on “CD22/cal (Cy34.1 mAb conjugated to N-acetyl gamma calicheamicin dimethyl acid) (antibody)” yielded an IC50, in vitro cytotoxicity (proliferation of LPS-stimulated primary B cells, 48 hours) of 0.08 µg/mL, an IC50, proliferation of LPS-stimulated primary mouse B cells (3H thymidine, 48 hr) of 0.03 µg/mL and a selectivity against the control immunoconjugate J110/cal (IC50 3 µg/ml), B cell proliferation of 100 fold.
